Target: murine pro-myostatin (proGDF8) (mouse, UniProt O08689 25-376)
Assay: cell-based or functional assay

B1: Ab6 (Ab5 IgG4 containing the corrected germline residues) (antibody, V domains shown)
VH: QVQLVESGGGVVQPGRSLRLSCAASGFAFSSYGMHWVRQAPGKGLEWVAVISYDGNNKYYADSVKGRFTISRDNSKNTLYLQMNSLRAEDTAVYYCARDLLVRFLEWSHKYGMDVWGQGTTVTVSS
VL: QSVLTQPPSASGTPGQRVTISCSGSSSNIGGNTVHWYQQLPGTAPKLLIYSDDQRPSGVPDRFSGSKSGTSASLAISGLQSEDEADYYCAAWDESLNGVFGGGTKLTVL
With B1 the “Activity Assay - 293T cells EC50” value was 0.307 nM.

From patent publication US20190218283A1 (published 2019)
